Test [1] concerns the target recombinant human BMP1 protein (human) (UniProt P13497). Nature of the test: enzyme inhibition kinetics.
Test [2] addresses Xenopus Crescent-Flag (Xenopus laevis). Nature of the test: SPR. For orientation: In SPR one partner is held on a chip, and binding of the other changes the refractive index at the surface.

For Xenopus Crescent-Flag (natural protein), the Ki – broadly, the dissociation constant of the complex between target and ligand, obtained from inhibition or displacement – in test [1] came to 59 nM. As to “recombinant human BMP1 protein (from UniProt P13497 23-986) (enzyme)”, the Kd – broadly, the equilibrium constant for the complex coming apart – in test [2] is 11 nM.

The record behind these values is paper PMC3088358.
